Assay results taken from a protein production outcome set (Wang et al. 2014).

Test: label from the status in PepcDB records

## MLISALIVMVITYCLIISRSITKIPPWASMFFGGILMVILGIISPEEALQSINLDVILFLITLFTFASALEVSGFLKFLAYKIIEKFKEPRKVLFYILLYSGLLSNLVTNDGVSASWTPVILELSRMIGVSEVPFLYALAVGVTIGSVIMPTGNPQNLLIALESGIKNPFITFTIYLTLPSIISLIIAYFILFRLFRKSLSLPSGINIKKEEEEKVDFDRRLGYLTLTLLVVTIILFFSLSFFKIDILLGSLVTSSILLLLTEKRRDIVRRMDWPTILFFIGLFIFTDGVLKSGIIQYLSNFLPPPDSVASIMIVSILLSQVLSNVPLVAIYIPIMISHSGITVVDWLALAAGSTIAGNFTILGAASNVIISEASESRGGKGFNFVEFMKYTIPILIPNAIIIYLFLVLFR
  protein production: failed

## INKLYAINANLEESELRFRSAFNSAAIGMAIVSLEGMWLKVNQSLCQIVGYSEEELLETNFQSITHPEDLELDLGYVRQLLEGDIRFYHMEKRYIHKNGSVIWILLSASLIRDLDNKPLYFISQIQNID
  protein production: failed

## MADRVIRADAKGVMRVEDGQAYNEAGQRLDDHALIPPEDANEDQARLNAQLAARDAAGLIVDLHNRGIDRHLWEQNEDAIGVERHNRGVDRHQPQIPAAIPLAAEPRRTLGDFNRPGMFYANRSAIVPPPYQRNDYESHLFYYITLHI
  protein production: failed

## MDKALTNHVIILSFDCLSALDFPILQKLPHFQSLIKKGTVVEKVEPIYPSVTYPSHSTIVTGNYPNKHGVVSNTLLQPGRESPDWHWYRKSIKGTTLYDEARKANLTTAALLWPVTGRANIDYNLPEIFPNRPWQNQVLVSLFSGSPLYQLDLNRRFGHIRNGLSQPELDDFVLASAVHTIQTKKPNIMFVHFTDLDTQRHYHGFESNETIAAIQRHDERLGKIIQALKESDLYEESTIIALGDHSALSENKSIQLNVLFHQRGLISLNKKRKLVDWKAYCQSCDGSAYVYVKDKNDTDTIREVQLLLEELLQNKQNGIEFILHDEAAKDCGADGNCLFMLEAREGYYFTENYTGDFIKEITEKDVTLSKKYTFGTHGYSPTKPNYETIFIAAGKGIKSGVTVPYMRLIDEGPTIARLLGLHLGETDGAIVEDLLQLLEHHHHHH
  protein production: not failed

## MKYRFIDHTADIAFEVYGSNLRELFENAALAFYDAFVDTSGIGIEREVGVECEGEDVEITLYRWLNELLYLFDTEFFAAKDVEVEVEEGDGVKASGKLRGGRFSAEMVKVEPKAITLHKFRVEKTDKGYVAFVVVDI
  protein production: failed

## MRTSGGQMNISSATLANTQRTIDSYEGCADDYSRIVDQFPWPSLEAALRQVATAAGKGGQILEIGSGAGWDADFLETQGVSVRRTDATRRFLELQAARGKKGELLNVITDDLGGPYDAVVALCVLIHAPRDQTGPVLEKIVAALRPGGVFLVSMRDGDGETSGAYHMSYWRRDDFALCIKEAGLALEWDAHRVNRDGDGWHTFYARRPE
  protein production: failed

## MMRVGIIGAGNIGHMHAEAVAACENTLLTGVFDLDRERAQSLARASGTVAFASPDELYKASDGVVVASPNRTHADYAREAVAYGRSVLCEKPMAVSLLQAADMRALAAVAPGVCAVGFNYRYLNVIREARNRIGEGMLGRVVHVDVAFKRASALTRQHFTWRDSAAEGHTSGALGDLGVHLIDMLHHLFRSPVDLASCQVALRTKVAAKGGHAVEVDDHAFVSGRIEGGPSFTLTASKASQPEETGFTLAAMGSRGDLSHDSQDGPVLHLRTGIDWEQVKLLGPSRLDDPRGEVTGWGDSFLDQLHDWAGAVTASQRSGTLADFEDGYQAQQVLQELLRIGGRM
  protein production: failed

## MWIFFRFISGIYLKNFFIIFFSLLGFYCGIDLLLNFKDLPKAANLDLLYVMFLSFSAVPYVLPISLIFALVVSLISMIRANEFVSLYALGLSRNYVILFPFLWALFFCCIYIGLNFTSFAYANDYKRNILKNGTIMNQSGEVFLKFNNNFVYISKINNGQNSAQNIKIFNINDLNLSSFVSAKNAYFEGESWILRDGNITLLPKNYELANDGLKIQDFSELKSLEGFKPKIIEGVASNSDYSISDALESFELFKAQNVNTDALKINLYKFVFTPFFAPFLMLIMYYFFPVIARFFNLAIVTFMAFVVTLMIWGVLFLLTRLSENSVIASEIGIVVPIIILGCLSAYMYYKHR
  protein production: failed

## MQVEREENRKEVYEMKKETTGSKKVENGMEQEILNGQQPHWEKVFSNTCSRFGDEPSYPARKAAAIFEKEGKKKILELGGGQGRDTCFFASRGFSVHSLDYTESGTKAMKEKAEESGFGKYVTALRHDARNPLPFEAETFDACYSHMLYCMALTTDELEFLCKEIKRVLKPGGINIYTARHTGDAHYGTGTHRGEDMYEIAGGFIVHFFSREKVENLAKEYGSFELEEFEEGELPRKLYMVTMRK
  protein production: failed

## MGRGYEVISTEVCPLCKGKGKSKSVDFMKISEKDIDSFLKNGAVCEKCKGKGSIEITRPCEACEGLGKIYTCKVCGARIHNPEDAEDEICSTCARSQHVYALDESCDLEHHHHHH
  protein production: not failed

## MDHLKHLQQLQNIERIVLSGIVLANHKIEEVHSVLEPSDFYYPPNGLFFEIALKLHEEDCPIDENFIRQKMPKDKQIKEEDLVAIFAASPIDNIEAYVEEIKNASIKRKLFGLANTIREQALESAQKSSDILGAVEREVYALLNGSTIEGFRNIKEVLESAMDLITENQRKGSLEVTGIPTGFVQLDNYTSGFNKGSLVIIGARPSMGKTSLMMNMVLSALNDDRGVAVFSLEMSAEQLALRALSDLTSINMHDLESGRLDDDQWENLAKCFDHLSQKKLFFYDKSYVRIEQIRLQLRKLKSQHKELGIAFIDYLQLMSGSKATKERHEQIAEISRELKTLARELEIPIIALVQLNRSLENRDDKRPILSDIKDSGGIEQDADIVLFLYRGYIYQMRAEDNKIDKLKKEGKIEEAQELYLKVNEERRIHKQNGSIEEAEIIVAKNRNGATGTVYTRFNAPFTRYEDMPIDSHLEEGQETKVDYDIVTT
  protein production: not failed

## MEQTDITSLIPIAITLIISLTTRNVVVGLFAGVLSGVAMLNGLFTTLGPFETFGVMVKSYISPQLTDSYNAGVIVLLVFIGGFVALMEKSGGGLAFAEKVTLWVKSKFQAQTSAWLGGIIIFFSDLGTPLIVGPVFRPLFDKLKISRQKLAFIIDSTSSPVAILIPFIGWGVYIMGLIQKEFTALNVTDITDWDAFLGAIPYQFYAILAIAIVPLVALKKLDFGPMAKAEAIASKGELHASSDISKEIFTHKNAKASFVWAPLLVMGAVLVFMLAPLGFPFEKVSGSVFRSALSTAYFFAAFTLIILMAMNKVRSLSDGISVYMKGMGNMMQVAIILILAWTLSSVGKELGAAAYIAEQAQNGFPYWLVPAVSFLLAAIISFATGSSWGTFAIMMHLVIPTAITIDAPMFVCIGAVLSGGLFGDHCSPISETTILSSTGAGCDQFEHFKTQLPYALLNGGIALVSFLIAGIFDNPLIFILALIAQVTLVVTLAKLTPENMFNKSKLVAGNQLG
  protein production: failed

## MTTNIAANSGGIVFHFLGTGGAQQVPAFGCECEVCQQAQRNESKRRRACCAAITTKDRIILIDAGLPELSPYLLPYPQRHILLTHYHMDHVQGLFPLRWGYGEPIPVFGPPDEAGCDDLFKHPGILHFQKPLMAFQPFELDGIRITPVPLIHSKLTYGYLIQTPTHTLAYLTDTIGLPPETTQFLASHTLDYAIVDCSHPPQTMLPRNHNDITRALEIFTQLNPKQLYLTHISHELDRWLQTQTLLPENVHAAYDGLVLGLLEHHHHHH
  protein production: failed

## MIAHMTRDNEYKTIKDRLITLVEKEQAHRTLNQYNSDKANHDITRLSNKMRLLRRLIEHPVILNEKVSSLGNNTKRAVKGLATGLVMVAVTITAISARDYWGEITASFIIAMSFIYALREIFKDDLRDMLWRWISKGKAKWRRHYFDPTTGKQVGDKEEWLDYKKLSELPDRIQAIRKKRIVQREEQILHYRSHTEMSTSRFMSGYEETRETMMIDLRAIMRQMDKGSNHIYQLNNGQVSRESVEKRHLLNLIAKEKHHKGEPTYYRWKIVLNRSRIVDIESIPLT
  protein production: failed

## MNIQDYPDRDMLAIDLANHLAGELEATLFTHDSATLAVAGGTTPGPVFDVLCAADLDWHRVMVLPTDERCVPQDHSRANARLIAERLLVNRAASARYLPLYLPGAEPEDCLAEVEALLTPALPLSVLVLGMGEDMHTASLFAGMPGLAAALDADAPALAVARPETQPENRITLTAPVLNGALSKHLIIYGAAKRKALERAMSMHPEEAPIAAVLDGITVHW
  protein production: failed
